Abundance fitness data for 40 variants are collected here from the Human Domainome abundance scans (Beltran et al. 2025).

First the molecules themselves.
B1: Double-stranded RNA-binding protein Staufen homolog 1, residues 183 to 249; numbered along this chain, O95793 (parent)
chain: KSEISQVFEIALKRNLPVNFEVARESGPPHMKNFVTKVSVGEFVGEGEGKSKKISKKNAAIAVLEEL

± gives the uncertainty stated by the source.

In this data set the parent is B1. Description: abundance fitness (aPCA) (normalised: wild type 0, dead -1); higher = more abundant; growth selection in yeast, the domain comes from the species named. The following applies: Homo sapiens.
Regarding KSEISQVFEIALKRNLPVNFEVARESGPPHMKNFVTKVSVGEFVGEGEGKSKKLSKKNAAIAVLEEL [I54L], the abundance fitness is -0.017 ± 0.036.
The result for KSEISQVFEIALKRNLPVNFEVARESGPPHMKNFVTKVSVGEFVGEGEGKSKKDSKKNAAIAVLEEL [I54D] reads -0.04 ± 0.072; that for KSEISQVFEIALKRNLPVNFEVARESGPPHMKNFVTKVSVGEFVGEGEGKSKKFSKKNAAIAVLEEL [I54F], -0.661 ± 0.12.
The same measure for KSEISQVFEIALKRNLPVNFEVARESGPPHMKNFVTKVSVGEFVGEGEGKSKKMSKKNAAIAVLEEL [I54M]: -0.051 ± 0.047; for KSEISQVFEIALKRNLPVNFEVARESGPPHMKNFVTKVSVGEFVGEGEGKSKKASKKNAAIAVLEEL [I54A]: -0.063 ± 0.042.
The same measure for KSEISQVFEIALKRNLPVNFEVARESGPPHMKNFVTKVSVGEFVGEGEGKSKKESKKNAAIAVLEEL [I54E]: 0.09 ± 0.043; for KSEISQVFEIALKRNLPVNFEVARESGPPHMKNFVTKVSVGEFVGEGEGKSKKKSKKNAAIAVLEEL [I54K]: -0.081 ± 0.049.
In the case of KSEISQVFEIALKRNLPVNFEVARESGPPHMKNFVTKVSVGEFVGEGEGKSKKHSKKNAAIAVLEEL [I54H], the abundance fitness was -0.221 ± 0.075.
Take KSEISQVFEIALKRNLPVNFEVARESGPPHMKNFVTKVSVGEFVGEGEGKSKKPSKKNAAIAVLEEL [I54P]: the abundance fitness was -0.724 ± 0.073.
The same measure for KSEISQVFEIALKRNLPVNFEVARESGPPHMKNFVTKVSVGEFVGEGEGKSKKCSKKNAAIAVLEEL [I54C]: -0.26 ± 0.052; for KSEISQVFEIALKRNLPVNFEVARESGPPHMKNFVTKVSVGEFVGEGEGKSGKISKKNAAIAVLEEL [K52G]: -0.603 ± 0.046.
The same measure for KSEISQVFEIALKRNLPVNFEVARESGPPHMKNFVTKVSVGEFVGEGEGKSYKISKKNAAIAVLEEL [K52Y]: -0.329 ± 0.078; for KSEISQVFEIALKRNLPVNFEVARESGPPHMKNFVTKVSVGEFVGEGEGKSIKISKKNAAIAVLEEL [K52I]: -0.175 ± 0.074; for KSEISQVFEIALKRNLPVNFEVARESGPPHMKNFVTKVSVGEFVGEGEGKSRKISKKNAAIAVLEEL [K52R]: -0.098 ± 0.039.
For the variant KSEISQVFEIALKRNLPVNFEVARESGPPHMKNFVTKVSVGEFVGEGEGKSSKISKKNAAIAVLEEL [K52S], the abundance fitness was -0.416 ± 0.049.
The same measure for KSEISQVFEIALKRNLPVNFEVARESGPPHMKNFVTKVSVGEFVGEGEGKSMKISKKNAAIAVLEEL [K52M]: -0.29 ± 0.058.
Regarding KSEISQVFEIALKRNLPVNFEVARESGPPHMKNFVTKVSVGEFVGEGEGKSTKISKKNAAIAVLEEL [K52T], the abundance fitness is -0.52 ± 0.053.
As to KSEISQVFEIALKRNLPVNFEVARESGPPHMKNFVTKVSVGEFVGEGEGKSPKISKKNAAIAVLEEL [K52P], the abundance fitness is -0.179 ± 0.052.
The same measure for KSEISQVFEIALKRNLPVNFEVARESGPPHMKNFVTKVSVGEFVGEGEGKSLKISKKNAAIAVLEEL [K52L]: -0.228 ± 0.039; for KSEISQVFEIALKRNLPVNFEVARESGPPHMKNFVTKVSVGEFVGEGEGKSHKISKKNAAIAVLEEL [K52H]: -0.518 ± 0.084.
The same measure for KSEISQVFEIALKRNLPVNFEVARESGPPHMKNFVTKVSVGEFVGEGEGKSVKISKKNAAIAVLEEL [K52V]: -0.243 ± 0.044.
Turning to KSEISQVFEIALKRNLPVNFEVARESGPPHMKNFVTKVSVGEFVGEGEGKSQKISKKNAAIAVLEEL [K52Q], the abundance fitness is -0.318 ± 0.064.
The same measure for KSEISQVFEIALKRNLPVNFEVARESGPPHMKNFVTKVSVGEFVGEGEGKSNKISKKNAAIAVLEEL [K52N]: -0.622 ± 0.088; for KSEISQVFEIALKRNLPVNFEVARESGPPHMKNFVTKVSVGEFVGEGEGKSKNISKKNAAIAVLEEL [K53N]: -0.243 ± 0.065; for KSEISQVFEIALKRNLPVNFEVARESGPPHMKNFVTKVSVGEFVGEGEGKSKDISKKNAAIAVLEEL [K53D]: -0.192 ± 0.066.
For KSEISQVFEIALKRNLPVNFEVARESGPPHMKNFVTKVSVGEFVGEGEGKSKGISKKNAAIAVLEEL [K53G], the abundance fitness was -0.243 ± 0.036.
The same measure for KSEISQVFEIALKRNLPVNFEVARESGPPHMKNFVTKVSVGEFVGEGEGKSKIISKKNAAIAVLEEL [K53I]: -0.225 ± 0.067; for KSEISQVFEIALKRNLPVNFEVARESGPPHMKNFVTKVSVGEFVGEGEGKSKQISKKNAAIAVLEEL [K53Q]: -0.207 ± 0.065.
The same measure for KSEISQVFEIALKRNLPVNFEVARESGPPHMKNFVTKVSVGEFVGEGEGKSKLISKKNAAIAVLEEL [K53L]: -0.235 ± 0.048; for KSEISQVFEIALKRNLPVNFEVARESGPPHMKNFVTKVSVGEFVGEGEGKSKRISKKNAAIAVLEEL [K53R]: -0.042 ± 0.04.
The same measure for KSEISQVFEIALKRNLPVNFEVARESGPPHMKNFVTKVSVGEFVGEGEGKSKVISKKNAAIAVLEEL [K53V]: -0.22 ± 0.042; for KSEISQVFEIALKRNLPVNFEVARESGPPHMKNFVTKVSVGEFVGEGEGKSKEISKKNAAIAVLEEL [K53E]: -0.049 ± 0.058.
Consider KSEISQVFEIALKRNLPVNFEVARESGPPHMKNFVTKVSVGEFVGEGEGKSKFISKKNAAIAVLEEL [K53F], for which the abundance fitness was -0.175 ± 0.075.
Turning to KSEISQVFEIALKRNLPVNFEVARESGPPHMKNFVTKVSVGEFVGEGEGKSKHISKKNAAIAVLEEL [K53H], the abundance fitness is -0.263 ± 0.077.
The same measure for KSEISQVFEIALKRNLPVNFEVARESGPPHMKNFVTKVSVGEFVGEGEGKSKTISKKNAAIAVLEEL [K53T]: -0.311 ± 0.057.
As to KSEISQVFEIALKRNLPVNFEVARESGPPHMKNFVTKVSVGEFVGEGEGKSKWISKKNAAIAVLEEL [K53W], the abundance fitness was -0.214 ± 0.053.
Regarding KSEISQVFEIALKRNLPVNFEVARESGPPHMKNFVTKVSVGEFVGEGEGKSKCISKKNAAIAVLEEL [K53C], the abundance fitness was -0.284 ± 0.055.
The result for KSEISQVFEIALKRNLPVNFEVARESGPPHMKNFVTKVSVGEFVGEGEGKSKPISKKNAAIAVLEEL [K53P] reads -0.284 ± 0.07; that for KSEISQVFEIALKRNLPVNFEVARESGPPHMKNFVTKVSVGEFVGEGEGKSKAISKKNAAIAVLEEL [K53A], -0.129 ± 0.054.
The result for KSEISQVFEIALKRNLPVNFEVARESGPPHMKNFVTKVSVGEFVGEGEGKSKMISKKNAAIAVLEEL [K53M] reads -0.278 ± 0.073.
